What was measured:
[1] = target: T1, human FolR1 ECD-AcTev-Fcknob-Avi tag + Fc hole, biotinylated monomeric Fc fusion (human, UniProt P0DOX5 223-449 = IgG part); assay: SPR ProteOn, Fab analyte;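 note: recombinant antigens immobilized, purified Fab two-fold dilutions injected in parallel channels, 200 s association and 600 s dissociation, buffer-only channel as in-line reference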
T1 construct: also called huFolR1; huFolR1-Fc
Procedure: (§1) Immobilization of antigens (ligand): Recombinant antigens were diluted with PBST (10 mM phosphate, 150 mM sodium chloride pH 7.4, 0.005% Tween 20) to 10 μg/ml, then injected at 30 μl/minute in vertical orientation.
(§2) Injection of analytes: For ‘one-shot kinetics’ measurements, injection direction was changed to horizontal orientation, two-fold dilution series of purified Fab (varying concentration ranges) were injected simultaneously along separate channels 1-5, with association times of 200 s, and dissociation times of 600 s. Buffer (PBST) was injected along the sixth channel to provide an “in-line” blank for referencing. Association rate constants (kₒₙ) and dissociation rate constants (koff) were calculated using a simple one-to-one Langmuir binding model in ProteOn Manager v3.1 software by simultaneously fitting the association and dissociation sensorgrams. The equilibrium dissociation constant (KD) was calculated as the ratio koff/kₒₙ.

[2] = target: T2, cynomolgus FolR1 ECD-AcTev-Fcknob-Avi tag + Fc hole, biotinylated monomeric Fc fusion (cynomolgus, UniProt P0DOX5 223-449 = IgG part); assay: SPR ProteOn, Fab analyte;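 note: recombinant antigens immobilized, purified Fab two-fold dilutions injected in parallel channels, 200 s association and 600 s dissociation, buffer-only channel as in-line reference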
T2 construct: also called cyFolR1; cyno FolR1-Fc
Procedure: as §1, §2

[3] = target: T3, human FolR2 ECD-AcTev-Fcknob-Avi tag + Fc hole, biotinylated monomeric Fc fusion (human, UniProt P0DOX5 223-449 = IgG part); assay: SPR ProteOn, Fab analyte;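 note: recombinant antigens immobilized, purified Fab two-fold dilutions injected in parallel channels, 200 s association and 600 s dissociation, buffer-only channel as in-line reference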
T3 construct: also called huFolR2; FolR2-Fc
Procedure: as §1, §2

[4] = target: T4, human FolR3 ECD-AcTev-Fcknob-Avi tag + Fc hole, biotinylated monomeric Fc fusion (human, UniProt P0DOX5 223-449 = IgG part); assay: SPR ProteOn, Fab analyte;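 note: recombinant antigens immobilized, purified Fab two-fold dilutions injected in parallel channels, 200 s association and 600 s dissociation, buffer-only channel as in-line reference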
T4 construct: also called huFolR3; FolR3-Fc
Procedure: as §1, §2

[5] = target: T3, human FolR2 ECD-AcTev-Fcknob-Avi tag + …; assay: SPR, IgG single injection
[6] = target: T4, human FolR3 ECD-AcTev-Fcknob-Avi tag + …; assay: SPR, IgG single injection
human TIM-3 on cells [7] = target: T5, human TIM-3 on cells (human, UniProt Q8TDQ0 22-301); assay: cell-based or functional assay
[8] = target: T6, cynomolgus TIM-3 on isolated cyno CD14+ monocytes (cynomolgus); assay: flow cytometry, cyno CD14+ monocytes cyno1
T6 construct: whole, on cells

[9] = target: T6, cynomolgus TIM-3 on isolated cyno CD14+ …; assay: flow cytometry, cyno CD14+ monocytes cyno2
Source text: (§3) CD14+ Monocytes were isolated from cynomolgus monkey anticoagulated peripheral blood (Covance) by density gradient centrifugation using Ficoll-Paque (GE Healthcare) (see General Protocols in the User Manuals or visit www.miltenyibiotec.com/protocols) and subsequent positive selection via NHP CD14 MicroBeads. First the CD14+ cells are magnetically labeled with CD14 MicroBeads. Then the cell suspension is loaded onto a MACS® Column which is placed in the magnetic field of a MACS Separator. The magnetically labeled CD14+ cells are retained in the column. The unlabeled cells run through, this cell fraction is depleted of CD14+ cells. After removal of the column from the magnetic field, the magnetically retained CD14+ cells can be eluted as the positively selected cell fraction. After centrifugation at 200×g for 10 min at room temperature the monocytes were harvested and used directly in binding assay or resuspended in freezing medium (10% DMSO, 90% FCS) at 1.0E+07 cells/ml and stored in liquid nitrogen.
(§4) 1×10⁵ CD14+ isolated cyno monocytes (50 μl/well) were put into 98 well-v bottom MTP in fresh culture medium and incubated with Redimune® NF Liquid for 15 min at RT to block unspecific binding. Than 50 μl/well of Alexa488 labeled anti-TIM3 (10 μg/ml in cell culture medium) were added and incubated for 1 h at 4° C. After washing and centrifugation MFI signals of stained cells were analyzed by BD Biosciences FACSCanto flow cytometer.

[10] = target: T6, cynomolgus TIM-3 on isolated cyno CD14+ …; assay: flow cytometry, cyno CD14+ monocytes cyno3
Source text: as §3, §4

human TIM-3 on cells [11] = target: T5, human TIM-3 on cells; assay: flow cytometry, human CD14+ monocytes donor1
human TIM-3 on cells [12] = target: T5, human TIM-3 on cells; assay: flow cytometry, human CD14+ monocytes donor2
human TIM-3 on cells [13] = target: T5, human TIM-3 on cells; assay: flow cytometry, human CD14+ monocytes donor3
Source text: CD14+ Monocytes were isolated from anticoagulated peripheral blood of healthy donors by density gradient centrifugation using Ficoll-Paque (GE Healthcare) (see General Protocols in the User Manuals or visit www.miltenyibiotec.com/protocols) and subsequent positive selection via CD14 MicroBeads. First the CD14+ cells are magnetically labeled with CD14 MicroBeads. Then the cell suspension is loaded onto a MACS® Column which is placed in the magnetic field of a MACS Separator. The magnetically labeled CD14+ cells are retained in the column. The unlabeled cells run through, this cell fraction is depleted of CD14+ cells. After removal of the column from the magnetic field, the magnetically retained CD14+ cells can be eluted as the positively selected cell fraction. After centrifugation at 200×g for 10 min at room temperature the monocytes were harvested and used directly in binding assay or resuspended in freezing medium (10% DMSO, 90% FCS) at 1.0E+07 cells/ml and stored in liquid nitrogen.
1×10⁵ CD14+ isolated human monocytes (50 μl/well) were put into 98 well-v bottom MTP in fresh culture medium and incubated with Redimune® NF Liquid for 15 min at RT to block unspecific binding. […] After washing and centrifugation MFI signals of stained cells were analyzed by BD Biosciences FACSCanto flow cytometer.

Row | Binder | Kd [1] [nM] | Kd [2] [nM] | binding result [3] | binding result [4] | further results
1 | 15A1 Fab (Fab, V domains shown) VH: QVQLVQSGAEVKKPGASVKVSCKASGYTFTSYYMHWVRQAPGQGLEWMGIINPSGGSTSYAQKFQGRVTMTRDTSTSTVYMELSSLRSEDTAVYYCARNYYIGVVTFDYWGQGTLVTVSS VL: QAVVTQEPSLTVSPGGTVTLTCGSSTGAVTTSNYANWVQEKPGQAFRGLIGGTNKRAPGTPARFSGSLLGGKAALTLSGAQPEDEAEYYCALWYSNLWVFGGGTKLTVL | 30.9 | 17.3 | no binding | no binding | 
2 | 18D3 IgG (antibody, V domains shown, human IgG1) VH: QVQLVQSGAEVKKPGASVKVSCKASGYTFTSYYMHWVRQAPGQGLEWMGIINPSGGSTSYAQKFQGRVTMTRDTSTSTVYMELSSLRSEDTAVYYCARNYYTGGSSAFDYWGQGTLVTVS VL: QAVVTQEPSLTVSPGGTVTLTCGSSTGAVTTSNYANWVQEKPGQAFRGLIGGTNKRAPGTPARFSGSLLGGKAALTLSGAQPEDEAEYYCALWYSNLWVFGGGTKLTVL |  |  |  |  | binding result [5]: no binding (tested: 500 nM); binding result [6]: no binding (tested: 500 nM)
3 | 16A3 Fab (Fab, V domains shown) VH: QVQLVQSGAEVKKPGASVKVSCKASGYTFTSYYMHWVRQAPGQGLEWMGIINPSGGSTSYAQKFQGRVTMTRDTSTSTVYMELSSLRSEDTAVYYCARNYYAGVTPFDYWGQGTLVTVSS VL: QAVVTQEPSLTVSPGGTVTLTCGSSTGAVTTSNYANWVQEKPGQAFRGLIGGTNKRAPGTPARFSGSLLGGKAALTLSGAQPEDEAEYYCALWYSNLWVFGGGTKLTVL | 21.7 | 18 | no binding | no binding | 
4 | 18D3 Fab (Fab, V domains shown) VH: QVQLVQSGAEVKKPGASVKVSCKASGYTFTSYYMHWVRQAPGQGLEWMGIINPSGGSTSYAQKFQGRVTMTRDTSTSTVYMELSSLRSEDTAVYYCARNYYTGGSSAFDYWGQGTLVTVS VL: QAVVTQEPSLTVSPGGTVTLTCGSSTGAVTTSNYANWVQEKPGQAFRGLIGGTNKRAPGTPARFSGSLLGGKAALTLSGAQPEDEAEYYCALWYSNLWVFGGGTKLTVL | 93.6 | 40.2 | no binding | no binding | 
5 | 19H3 Fab (Fab, V domains shown) VH: QVQLVQSGAEVKKPGASVKVSCKASGYTFTSYYMHWVRQAPGQGLEWMGIINPSGGSTSYAQKFQGRVTMTRDTSTSTVYMELSSLRSEDTAVYYCARTGWSRWGYMDYWGQGTLVTVSS VL: QAVVTQEPSLTVSPGGTVTLTCGSSTGAVTTSNYANWVQEKPGQAFRGLIGGTNKRAPGTPARFSGSLLGGKAALTLSGAQPEDEAEYYCALWYSNLWVFGGGTKLTVL |  |  | no binding | no binding | binding result [1]: no binding; binding result [2]: no binding
6 | 15H7 Fab (Fab, V domains shown) VH: QVQLVQSGAEVKKPGASVKVSCKASGYTFTSYYMHWVRQAPGQGLEWMGIINPSGGSTSYAQKFQGRVTMTRDTSTSTVYMELSSLRSEDTAVYYCARNYYLFSTSFDYWGQGTLVTVSS VL: QAVVTQEPSLTVSPGGTVTLTCGSSTGAVTTSNYANWVQEKPGQAFRGLIGGTNKRAPGTPARFSGSLLGGKAALTLSGAQPEDEAEYYCALWYSNLWVFGGGTKLTVL |  | 72.5 | no binding | no binding | 
7 | 16A3 IgG (antibody, V domains shown, human IgG1) VH: QVQLVQSGAEVKKPGASVKVSCKASGYTFTSYYMHWVRQAPGQGLEWMGIINPSGGSTSYAQKFQGRVTMTRDTSTSTVYMELSSLRSEDTAVYYCARNYYAGVTPFDYWGQGTLVTVSS VL: QAVVTQEPSLTVSPGGTVTLTCGSSTGAVTTSNYANWVQEKPGQAFRGLIGGTNKRAPGTPARFSGSLLGGKAALTLSGAQPEDEAEYYCALWYSNLWVFGGGTKLTVL |  |  |  |  | binding result [5]: no binding (tested: 500 nM); binding result [6]: no binding (tested: 500 nM)
8 | 20G6 Fab (Fab, V domains shown) VH: QVQLVQSGAEVKKPGASVKVSCKASGYTFTSYYMHWVRQAPGQGLEWMGIINPSGGSTSYAQKFQGRVTMTRDTSTSTVYMELSSLRSEDTAVYYCARGEWIRYYHFDYWGQGTLVTVSS VL: QAVVTQEPSLTVSPGGTVTLTCGSSTGAVTTSNYANWVQEKPGQAFRGLIGGTNKRAPGTPARFSGSLLGGKAALTLSGAQPEDEAEYYCALWYSNLWVFGGGTKLTVL |  |  | no binding | no binding | binding result [1]: no binding; binding result [2]: no binding
9 | 15H7 IgG (antibody, V domains shown, human IgG1) VH: QVQLVQSGAEVKKPGASVKVSCKASGYTFTSYYMHWVRQAPGQGLEWMGIINPSGGSTSYAQKFQGRVTMTRDTSTSTVYMELSSLRSEDTAVYYCARNYYLFSTSFDYWGQGTLVTVSS VL: QAVVTQEPSLTVSPGGTVTLTCGSSTGAVTTSNYANWVQEKPGQAFRGLIGGTNKRAPGTPARFSGSLLGGKAALTLSGAQPEDEAEYYCALWYSNLWVFGGGTKLTVL |  |  |  |  | binding result [5]: no binding (tested: 500 nM); binding result [6]: no binding (tested: 500 nM)
10 | 19E5 Fab (Fab, V domains shown) VH: QVQLVQSGAEVKKPGASVKVSCKASGYTFTSYYMHWVRQAPGQGLEWMGIINPSGGSTSYAQKFQGRVTMTRDTSTSTVYMELSSLRSEDTAVYYCARGEWRRYTSFDYWGQGTLVTVSS VL: QAVVTQEPSLTVSPGGTVTLTCGSSTGAVTTSNYANWVQEKPGQAFRGLIGGTNKRAPGTPARFSGSLLGGKAALTLSGAQPEDEAEYYCALWYSNLWVFGGGTKLTVL |  | 276 |  |  | 
11 | 21D1 Fab (Fab, V domains shown) VH: QVQLVQSGAEVKKPGASVKVSCKASGYTFTSYYMHWVRQAPGQGLEWMGIINPSGGSTSYAQKFQGRVTMTRDTSTSTVYMELSSLRSEDTAVYYCARNYYVGVSPFDYWGQGTLVTVSS VL: QAVVTQEPSLTVSPGGTVTLTCGSSTGAVTTSNYANWVQEKPGQAFRGLIGGTNKRAPGTPARFSGSLLGGKAALTLSGAQPEDEAEYYCALWYSNLWVFGGGTKLTVL | 62.6 | 32.1 | no binding | no binding | 
12 | 19A4 Fab (Fab, V domains shown) VH: QVQLVQSGAEVKKPGASVKVSCKASGYTFTSYYMHWVRQAPGQGLEWMGIINPSGGSTSYAQKFQGRVTMTRDTSTSTVYMELSSLRSEDTAVYYCARGGWIRWEHFDYWGQGTLVTVSS VL: QAVVTQEPSLTVSPGGTVTLTCGSSTGAVTTSNYANWVQEKPGQAFRGLIGGTNKRAPGTPARFSGSLLGGKAALTLSGAQPEDEAEYYCALWYSNLWVFGGGTKLTVL | 2050 | 4250 |  |  | 
13 | 21D1 IgG (antibody, V domains shown, human IgG1) VH: QVQLVQSGAEVKKPGASVKVSCKASGYTFTSYYMHWVRQAPGQGLEWMGIINPSGGSTSYAQKFQGRVTMTRDTSTSTVYMELSSLRSEDTAVYYCARNYYVGVSPFDYWGQGTLVTVSS VL: QAVVTQEPSLTVSPGGTVTLTCGSSTGAVTTSNYANWVQEKPGQAFRGLIGGTNKRAPGTPARFSGSLLGGKAALTLSGAQPEDEAEYYCALWYSNLWVFGGGTKLTVL |  |  |  |  | binding result [5]: no binding (tested: 500 nM); binding result [6]: no binding (tested: 500 nM)
14 | Tim3_0038 (antibody, V domains shown) VH: EVQLQQSGAEPLKPGASVKLTCTTSGFNIKDYYIHWVKQRSDQGLEWIGRIDPEDGELIYAPKFQDKATITVDTSSNIAYLQLNSLTSEDTAVYYCSRDHGYVGWFAYWGQGTLVTVSA VL: NVVMTQSPKSMIMSVGQRVTLNCKASENVDTYVSWYQQKPEQSPKLLIYGASNRYTGVPDRFTGSRSATDFTLTISSVQAEDLAVYYCGQSYSYPWTFGGGTKLEFR |  |  |  |  | IFN-gamma release in MLR at 1 µg/ml, % of IL-2 control (human TIM-3 on cells [7]): 1%; IFN-gamma release in MLR at 10 µg/ml, % of IL-2 control (human TIM-3 on cells [7]): 38%; IFN-gamma release in MLR at 40 µg/ml, % of IL-2 control (human TIM-3 on cells [7]): 51%; MFI [8]: 97 MFI; MFI [9]: 107 MFI; MFI [10]: 120 MFI; specific binding MFI (human TIM-3 on cells [11]): 1640 MFI; specific binding MFI (human TIM-3 on cells [12]): 1370 MFI; specific binding MFI (human TIM-3 on cells [13]): 1400 MFI

Reference: patent US20210087291A1 (Hoffmann-La Roche, published 2021)
